The RNAGym collection of RNA variant scans (doi:10.1073/pnas.2313332121)
Fewer inactive variants are shown than the library holds.

B1: TPR 5TU (parent)
chain: GGAUCUUCUCGAUCUAACAAAAAAGACAAAUCUGCCACAAAGCUUGAGAGCAUCUUCGGAUGCAGAGGCGGCAGCCUUCGGUGGCGCGAUAGCGCCAACGUUCUCAACUAUGACACGCAAAACGCGUGCUCCGUUGAAUGGAGUUUAUCAUG

Variants of: B1
Assay: polymerase ribozyme fitness, log enrichment relative to wild type (log ratio); higher = more active; in vitro selection for triplet polymerase activity
Outline: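 Mutant libraries for each subunit of a heterodimeric triplet polymerase ribozyme were made by PCR and then transcribed. Each library underwent one round of in vitro selection in triplicate: annealing with a biotinylated primer, the partner subunit and triplets, frozen incubation at −7 °C, gel excision of extended constructs, streptavidin-bead capture and RT-PCR. Input and output libraries were Illumina-sequenced, and only genotypes with ≥10 input reads and ≥1 read per output were kept. Fitness is the logarithm, base 2, of genotype enrichment over wild-type enrichment, computed from inverse-variance-weighted replicate averages.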

First: C85G G133C U135C
Second: C79U G140U
The “polymerase ribozyme fitness (log ratio)” value of the first is lower: no more than -4.2 for the first, -3.68 for the second.

Going from C85G C118G to G81A G86A A97C, the “polymerase ribozyme fitness (log ratio)” value rises from -2.62 to -0.925.

First: G83A A150U
Second: G83A A150C
The “polymerase ribozyme fitness (log ratio)” value of the first is higher: 0.356 for the first, -3.77 for the second.

Going from G83A U151G to G84A A119U, the “polymerase ribozyme fitness (log ratio)” value rises from -3.97 to -0.787.

First: C85U A91C C105U
Second: G80A A98C
The “polymerase ribozyme fitness (log ratio)” value of the first is lower: no more than -4.2 for the first, -2.19 for the second.

Going from G83C to G83U, the “polymerase ribozyme fitness (log ratio)” value rises from -0.934 to -0.478.

First: G83A
Second: G81C A119U G128U
The “polymerase ribozyme fitness (log ratio)” value of the first is higher: -0.336 for the first, -2.99 for the second.

Going from U78G C85G G140A to G83C C99A G133A, the “polymerase ribozyme fitness (log ratio)” value rises from no more than -4.2 to -4.12.

Going from C79U A91U C103G U135A to C85U A120G, the “polymerase ribozyme fitness (log ratio)” value rises from no more than -4.2 to -1.65.

Compared with C85G G92C A121C C132U U146A, C85U A89C is higher in “polymerase ribozyme fitness (log ratio)” value: no more than -4.2 for the first, -1.13 for the second.

First: G83A U104G A120G
Second: G80C C93G
The “polymerase ribozyme fitness (log ratio)” value of the first is higher: -1.21 for the first, -4.2 for the second.

Going from G84A A113U G140A to U82C C95G U148C, the “polymerase ribozyme fitness (log ratio)” value rises from no more than -4.2 to -4.02.

Compared with C85G C96U A113U, U78A G81A C93G A97U U151C is lower in “polymerase ribozyme fitness (log ratio)” value: -3.8 for the first, no more than -4.2 for the second.

Compared with G81A U144C, G80A C99G is higher in “polymerase ribozyme fitness (log ratio)” value: -1.41 for the first, -1.02 for the second.

Compared with G84U C95G A122U G152C, C85A G141A is higher in “polymerase ribozyme fitness (log ratio)” value: -3.55 for the first, -1.85 for the second.

Compared with C85A G141C, G84A U127C is lower in “polymerase ribozyme fitness (log ratio)” value: -1.46 for the first, -1.91 for the second.

C85G C132G and G83C C132U A142U cannot be ordered by “polymerase ribozyme fitness (log ratio)” value: no more than -4.2 for the first, no more than -4.2 for the second.

Compared with C85G G133C, G84U A120U is higher in “polymerase ribozyme fitness (log ratio)” value: -2.86 for the first, -2.07 for the second.

Compared with G83A C132G G133C, G83C C96U C108G G143U is lower in “polymerase ribozyme fitness (log ratio)” value: -2.67 for the first, no more than -4.2 for the second.

Going from G84U U144G to G83U G133C, the “polymerase ribozyme fitness (log ratio)” value falls from -0.698 to -2.09.

First: G84A A121C U127G
Second: G84C A97G
The “polymerase ribozyme fitness (log ratio)” value of the first is lower: -2.56 for the first, -1.95 for the second.

First: C85A C103A A147G
Second: G83C C95U G126A
The “polymerase ribozyme fitness (log ratio)” value of the first is lower: no more than -4.2 for the first, -2.05 for the second.

Going from G84U C103U to G84A G100A A106G A113U G117U C123U A142C, the “polymerase ribozyme fitness (log ratio)” value falls from -1.74 to no more than -4.2.

First: G83U A121U
Second: C85G A106C G141U G143U U151A
The “polymerase ribozyme fitness (log ratio)” value of the first is higher: -0.341 for the first, no more than -4.2 for the second.

Compared with G83U A98U C105U, C85G G141A is lower in “polymerase ribozyme fitness (log ratio)” value: -0.156 for the first, -2.85 for the second.

Compared with C85U A120G G124U G143C, U82C U104G G117U is higher in “polymerase ribozyme fitness (log ratio)” value: -3.46 for the first, 0.147 for the second.

Compared with C85U A98U U139A, G81U A97U C105U is higher in “polymerase ribozyme fitness (log ratio)” value: no more than -4.2 for the first, 0.976 for the second.

First: C85A C129U
Second: G84A G140U
The “polymerase ribozyme fitness (log ratio)” value of the first is higher: -0.397 for the first, -2.64 for the second.

Going from G84A G140A to G83A U135G G141A, the “polymerase ribozyme fitness (log ratio)” value falls from -3.27 to -3.78.

G84U C96U A122G C149G and G83U C114G A115U A119U cannot be ordered by “polymerase ribozyme fitness (log ratio)” value: no more than -4.2 for the first, no more than -4.2 for the second.

First: C85A C87U U101G G136U
Second: C85A G117C C118A A147U
The “polymerase ribozyme fitness (log ratio)” value of the first is lower: no more than -4.2 for the first, -0.0649 for the second.

Compared with G81A A120U G128A, C85G A119C is higher in “polymerase ribozyme fitness (log ratio)” value: -3.29 for the first, -2.45 for the second.

C85G A119G and C85G A122U are within 0.2 log units of each other in “polymerase ribozyme fitness (log ratio)” value: -1.7 for the first, -1.53 for the second.

First: C85A C116G
Second: G83A A115U
The “polymerase ribozyme fitness (log ratio)” value of the first is higher: -0.2 for the first, -1.25 for the second.

Compared with C85G U134A, U78G G86U is lower in “polymerase ribozyme fitness (log ratio)” value: -3.86 for the first, no more than -4.2 for the second.

Going from G83C G117A to G84U C95U G143C, the “polymerase ribozyme fitness (log ratio)” value falls from 0.556 to -3.33.

Going from C85G G141U U146A to G84U U101G G143U, the “polymerase ribozyme fitness (log ratio)” value falls from -0.46 to no more than -4.2.

G83U C87U A89C G141A A142G and U82G A97G A98G C118A A119C G140C cannot be ordered by “polymerase ribozyme fitness (log ratio)” value: no more than -4.2 for the first, no more than -4.2 for the second.

Going from G80U C114U to G80A G84A C116A U135G, the “polymerase ribozyme fitness (log ratio)” value falls from -2.31 to no more than -4.2.

G84U G117U and G81C C85U A89U A142G are within 0.2 log units of each other in “polymerase ribozyme fitness (log ratio)” value: -1.61 for the first, -1.67 for the second.

First: U82A A113C G117U G141C
Second: C85G U139A
The “polymerase ribozyme fitness (log ratio)” value of the first is lower: no more than -4.2 for the first, -4.19 for the second.

With G80A G84A the “polymerase ribozyme fitness (log ratio)” value was -0.264.
